# According to patent US20250257133A1 (ADAGENE PTE, published 2025):
# Numbering of substitutions follows the chain as printed. In names and notes the source's numbering stands.
# B1: TY24857 (antibody, human IgG4 S228P, kappa, V domains shown)
# VH: EVQLVESGGGLVQPGGSLRLSCAASGFSLSTSGVAVGWIRQAPGKGLEWIGEIYHSGSTYYSPSLKSRVTISRDNSKNTLYLQLNSLRAEDTAVYYCARHGYHYYALDYWGQGTLVTVSS
# VL: DIQLTQSPSSLSASVGDRVTITCPASQDVGTAVAWYQQKPGKAPKLLIYDASSLESGVPSRFSGSGSGTDFTLTISSLQPEDFATYYCQQYYSSPPTFGQGTKVEIKR
# notes: hIgG4/S241P
# B2: TY24860 (antibody, human IgG4 S228P, kappa, V domains shown)
# VH: B1 VH with A35G, G37S, H100K, H103Y, L107F, Q112P
# VL: B1 VL with P24R, V29I, T31S, A32F, V33L, D50A, E55Q, Y91S, S93R
# notes: hIgG4/S241P
# B3: TY24877 (antibody, human IgG4 S228P, kappa, V domains shown)
# VH: QVQLVQSGAEVKKPGSSVKVSCKASGYTFTNYGIHWVRQAPGQGLEWIGEIYHSGSTYYSPSLKSRVTITADKSTSTAYMELSSLRSEDTAVYYCARGPLSYYALDYWGQGTLVTVSS
# VL: B1 VL with P24R, D28S, V29I, G30R, T31R, A32F, V33L, A34N, S93R, P96I
# notes: hIgG4/S241P
# B4: TY24884 (antibody, human IgG4 S228P, kappa, V domains shown)
# VH: QVQLVQSGAEVKKPGSSVKVSCKASGFTFSGYAIHWVRQAPGQGLEWIGQIYHSGSTYYNPSLKSRVTITADKSTSTAYMELSSLRSEDTAVYYCARSGYGGYDFDYWGQGTLVTVSS
# VL: DIQLTQSPSSLSASVGDRVTITCRASQSVPRRYLAWYQQKPGKAPKLLIYAASTLQSGVPSRFSGSGSGTDFTLTISSLQPEDFATYYCQQYYRSPITFGQGTKVEIKR
# notes: hIgG4/S241P
# B5: TY24858 (antibody, human IgG4 S228P, kappa, V domains shown)
# VH: EVQLVESGGGLVQPGGSLRLSCAASGYSISSGHHWTWIRQAPGKGLEWIGEIYHSGSTYYSPSLKSRVTISRDNSKNTLYLQLNSLRAEDTAVYYCARRDYGSSYFDYWGQGTLVTVSS
# VL: B4 VL with P30S, R32S, Y33F, A51D, T54N, L55R, Q56A, S57T, V59I
# notes: hIgG4/S241P
# B6: TY24856 (antibody, human IgG4 S228P, kappa, V domains shown)
# VH: B5 VH with T36S, Y101F, S103A
# VL: DIQLTQSPSSLSASVGDRVTITCRASQGVGPWLAWYQQKPGKAPKLLIYAASSLQSGVPSRFSGSGSGTDFTLTISSLQPEDFATYYCQQYYSYSTFGQGTKVEIKR
# notes: hIgG4/S241P
# How the values were obtained:
# [1] = target: T1, His-tagged human CD28 protein (human, UniProt P10747 19-152); assay: Octet BLI, mAb captured;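 note: Anti-human Fc biosensors captured the antibodies, then His-tagged protein analytes at 100 nM associated for 300 s and dissociated for 300 s, fitted by a 1:1 Langmuir model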
# T1 construct: not shown: His tag
# [2] = target: T2, His-tagged human CTLA4 protein (human, UniProt P16410 36-161, limits assumed); assay: Octet BLI, mAb captured;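 note: Anti-human Fc biosensors captured the antibodies, then His-tagged protein analytes at 100 nM associated for 300 s and dissociated for 300 s, fitted by a 1:1 Langmuir model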
# T2 construct: not shown: His tag
# [3] = target: T3, Human CD28 on cells (human, UniProt P10747 19-220); assay: flow cytometry, Jurkat cells
# T3 construct: Jurkat E6-1 cells, primary human T cells, or transfected HEK293F cells; also called CD28 on Jurkat cells; CD28 on human CD3+ T cells
# Experimental: Next, the cells were washed twice with DPBS and further incubated with a APC-anti-human IgG Fc secondary antibody (1 μg/mL, 100 μL/well, Biolegend) for 30 minutes at 4° C. Finally, the cells were washed twice with DPBS and suspended in FACS buffer for flow cytometry analysis. For analysis, the Mean Fluorescence Intensity (MFI) values versus concentrations were plotted using FlowJo 10 software (FlowJo LLC) and the data were further fitted with four-parameter non-linear regression to obtain EC₅₀ values by GraphPad Prism version 7 for Windows, GraphPad Software, La Jolla California USA, www.graphpad.com.
# [4] = target: T4, Recombinant human CD28-Fc (human, UniProt P10747 19-152); assay: ELISA, coated CD28-Fc
# T4 construct: not shown: Fc part
# [5] = target: T5, Recombinant mouse CD28-Fc (mouse, UniProt P31041 20-150); assay: ELISA, coated CD28-Fc
# T5 construct: not shown: Fc part
# [6] = target: Human CD28 (ELISAs of Examples 4 and 13) (human, UniProt P10747 19-152, limits assumed); assay: ELISA, blocking of CD28-CD80
# T2 sequence (P16410 36-161 limits assumed): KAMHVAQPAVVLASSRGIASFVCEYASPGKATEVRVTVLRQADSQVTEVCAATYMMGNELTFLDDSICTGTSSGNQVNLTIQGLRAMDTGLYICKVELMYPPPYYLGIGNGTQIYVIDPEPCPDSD
# T5 sequence (P31041 20-150 limits assumed): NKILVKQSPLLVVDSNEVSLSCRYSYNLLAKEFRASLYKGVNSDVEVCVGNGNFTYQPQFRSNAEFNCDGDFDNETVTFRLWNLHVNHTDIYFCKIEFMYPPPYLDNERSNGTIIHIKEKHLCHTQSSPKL
Binder,Kd [1] [nM],koff [1] [s⁻¹],kon [1] [M⁻¹ s⁻¹],Kd [2] [nM],koff [2] [s⁻¹],kon [2] [M⁻¹ s⁻¹],EC50 [3] [nM],binding result [2],EC50 [4] [nM],EC50 [5] [nM],IC50 [6] [nM]
B1,8.64,0.00063,72900,5.44,0.00355,652000,0.75,–,–,–,–
B2,6.66,0.000421,63200,–,–,–,0.78,no binding (tested: 100 nM CTLA4),–,–,–
B3,7.19,0.000193,26900,13.2,0.00311,235000,0.79,–,–,–,–
B4,2.42,0.000166,68400,6.36,0.00408,641000,1.09,–,1.02,> 44.4,0.28
B5,9.88,0.000702,71000,7.9,0.00242,306000,0.7,–,–,–,–
B6,7.8,0.000538,68900,5.13,0.00156,304000,0.76,–,–,–,–
